Laboratory results reported in US20250195658A1 (ST JUDE CHILDREN S RESEARCH HOSPITAL, published 2025).
No end group written: not given here. *: point of attachment. Biotin = O=C1N[C@H]2[C@H](CS[C@H]2CCCCC(=O)*)N1; Ahx = NCCCCCC(=O)O

T1: Recombinant Human IL3RA protein conjugated to APC (Creative BioMart, CAT #IL3RA-3248HA) (human, UniProt P26951 19-305, limits assumed, conjugated to APC)
T1 construct: also called recombinant CD123 protein; Recombinant CD123
T1 sequence (looked up): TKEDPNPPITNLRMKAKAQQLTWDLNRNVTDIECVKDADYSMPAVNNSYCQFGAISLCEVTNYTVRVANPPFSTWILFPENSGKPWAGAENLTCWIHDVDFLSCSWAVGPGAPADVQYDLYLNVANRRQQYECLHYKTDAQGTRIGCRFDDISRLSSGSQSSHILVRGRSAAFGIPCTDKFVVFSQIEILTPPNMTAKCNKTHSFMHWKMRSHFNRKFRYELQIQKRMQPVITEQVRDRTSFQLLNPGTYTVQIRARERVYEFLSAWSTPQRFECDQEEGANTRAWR


How the values were obtained:
[1] = molecular target: T1, Recombinant Human IL3RA protein …; experiment: flow cytometry of CAR T cells stained with APC-conjugated recombinant human IL3RA (FIG. 2B)
Experimental: (§1) Flow cytometric analysis. Cells were stained with fluorochrome-conjugated primary antibodies for 30 min at room temperature and washed with FACS buffer (5% FBS in 1×PBS) prior to analysis. Cell surface GRP78 was detected by a GRP78-specific peptide with an N-terminal Biotin tag (Biotin-Ahx-[…]; SEQ ID NO: 126) was obtained from Genscript (Piscataway, NJ) in combination with Streptavidin PE (BioLegend, San Diego, CA. CCAT #405204) using a 2-step staining protocol. Cells were incubated with GRP78 peptide for 30 minutes at room temperature, protected from light. Cells were washed twice prior to staining with additional antibodies. Recombinant CD123 Recombinant Human IL3RA protein conjugated to APC (Creative BioMart, CAT #IL3RA-3248HA) was used to detect CD123 scFv binding. The following antibodies were purchased from BD Biosciences: CCR7 Pacific Blue (BD Pharmigen, Clone G043H7 CAT #353210), CD45RO PerCP-Cy5.5 (BD Pharmigen, Clone UCHL1, CAT #560607), CD123 APC (BD Pharmigen, Clone 7G3, CAT #560087), CD3 BV421 (BD Horizon, Clone SK7, CAT #563797), CD3 BV786 (BD Horizon, Clone SK7, CAT #563800), CD19 PE-Cy7 (BD Pharmigen, Clone HIB19, CAT #560728), CD20 BV650 (BD Horizon, Clone 2H7, CAT #563780). […]

[2] = molecular target: T2, cell surface glucose-regulated-protein 78 (GRP78) (UniProt P11021 19-654, limits assumed); experiment: flow cytometry on cell lines, 2-step staining with Streptavidin PE
T2 construct: whole, on cells; also called GRP78 antigen; HSPA5
T2 sequence (P11021 19-654 limits assumed): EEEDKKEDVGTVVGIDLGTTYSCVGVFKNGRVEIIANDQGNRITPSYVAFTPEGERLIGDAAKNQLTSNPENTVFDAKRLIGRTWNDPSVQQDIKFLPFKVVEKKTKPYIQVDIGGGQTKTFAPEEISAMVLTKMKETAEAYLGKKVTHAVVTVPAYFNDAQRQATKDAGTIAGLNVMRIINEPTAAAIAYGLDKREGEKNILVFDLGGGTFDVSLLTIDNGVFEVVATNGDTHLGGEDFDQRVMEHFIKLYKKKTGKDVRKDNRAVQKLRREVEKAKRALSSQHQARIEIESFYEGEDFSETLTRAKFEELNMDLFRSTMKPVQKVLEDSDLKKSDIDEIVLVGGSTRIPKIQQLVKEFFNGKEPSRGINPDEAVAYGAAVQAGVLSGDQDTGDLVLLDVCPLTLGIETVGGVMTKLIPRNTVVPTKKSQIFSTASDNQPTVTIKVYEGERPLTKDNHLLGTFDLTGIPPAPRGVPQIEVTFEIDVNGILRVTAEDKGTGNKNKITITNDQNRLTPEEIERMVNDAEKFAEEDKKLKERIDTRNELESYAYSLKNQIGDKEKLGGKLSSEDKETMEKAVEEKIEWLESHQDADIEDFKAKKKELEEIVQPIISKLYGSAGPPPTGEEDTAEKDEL
Experimental: as §1

| % of transduced T cells positive for recombinant CD123 protein [1] [%] | binding result [2] | Binder |
| --- | --- | --- |
| 83.6 |  | GRP78-GPcPcPc-CD123-CAR (other) CTVALPGGYVRVCEFAGSGGSGGSGGSPVPSTPPTNSSSTPPTPSPSPVPSTPPTNSSSTPPTPSPSPVPSTPPTNSSSTPPTPSPSASAAAQVQLQQPGAELVRPGASVKLSCKASGYTFTSYWMNWVKQRPDQGLEWIGRIDPYDSETHYNQKFKDKAILTVDKSSSTAYMQLSSLTSEDSAVYYCARGNWDDYWGQGTTLTVSSGGGGSGGGGSGGGGSDVQITQSPSYLAASPGETITINCRASKSISKDLAWYQEKPGKTNKLLIYSGSTLQSGIPSRFSGSGSGTDFTLTISSLEPEDFAMYYCQQHNKYPYTFGGGTKLEIKSIEVMYPPPYLDNEKSNGTIIHVKGKHLCPSPLFPGPSKPFWVLVVVGGVLACYSLLVTVAFIIFWVRSKRSRLLHSDYMNMTPRRPGPTRKHYQPYAPPRDFAAYRSRVKFSRSADAPAYQQGQNQLYNELNLGRREEYDVLDKRRGRDPEMGGKPRRKNPQEGLYNELQKDKMAEAYSEIGMKGERRRGKGHDGLYQGLSTATKDTYDALHMQALPPR |
|  | binds | {Biotin-Ahx}-CTVALPGGYVRVC (cysteine pairing not given here, Obtained from Genscript; Detected with Streptavidin PE in a 2-step staining; also called GRP78-biotin; GRP78 peptide) [GRP78-specific peptide with an N-terminal Biotin tag (Biotin-Ahx-CTVALPGGYVRVC)] |
| 87.5 |  | GRP78-G4S3-CD123-CAR (other, Residues from 510 on (spacer RSGVDSG, T2A, tCD19) are also left out; also called 78.(G4S)3.123; G4S2) CTVALPGGYVRVCEFGGGGSGGGGSGGGGSAAAQVQLQQPGAELVRPGASVKLSCKASGYTFTSYWMNWVKQRPDQGLEWIGRIDPYDSETHYNQKFKDKAILTVDKSSSTAYMQLSSLTSEDSAVYYCARGNWDDYWGQGTTLTVSSGGGGSGGGGSGGGGSDVQITQSPSYLAASPGETITINCRASKSISKDLAWYQEKPGKTNKLLIYSGSTLQSGIPSRFSGSGSGTDFTLTISSLEPEDFAMYYCQQHNKYPYTFGGGTKLEIKSIEVMYPPPYLDNEKSNGTIIHVKGKHLCPSPLFPGPSKPFWVLVVVGGVLACYSLLVTVAFIIFWVRSKRSRLLHSDYMNMTPRRPGPTRKHYQPYAPPRDFAAYRSRVKFSRSADAPAYQQGQNQLYNELNLGRREEYDVLDKRRGRDPEMGGKPRRKNPQEGLYNELQKDKMAEAYSEIGMKGERRRGKGHDGLYQGLSTATKDTYDALHMQALPPR |
